In PMC4695161:
Blank lines part the entries; values can stand above or below the substance they belong to.

What was measured:
[1] = biological target: C-terminal AZ peptide AZ(100-228) (human) (UniProt P54368); assay: AUC; sedimentation velocity; AZ or AZ peptide at a fixed concentration, three concentrations of CCND1; 30 mM Tris-HCl pH 7.4, 50 mM NaCl; global fit (SEDPHAT) to A+B↔AB hetero-association
[2] = biological target: antizyme inhibitor (Homo sapiens) (UniProt O14977); assay: analytical ultracentrifugation; conditions: cited from earlier work
[3] = biological target: ornithine decarboxylase (Homo sapiens) (UniProt P11926); assay: analytical ultracentrifugation; conditions: cited from earlier work
[4] = biological target: human cyclin D1 (CCND1) (human) (UniProt P24385); assay: AUC; sedimentation velocity of CCND1 alone at 0.05, 0.1 and 0.3 mg/ml, 30 mM Tris-HCl pH 7.4, 20°C; global fit (SEDPHAT) to monomer-dimer equilibrium; dimer to monomers

Chain of antizyme (P54368 whole entry): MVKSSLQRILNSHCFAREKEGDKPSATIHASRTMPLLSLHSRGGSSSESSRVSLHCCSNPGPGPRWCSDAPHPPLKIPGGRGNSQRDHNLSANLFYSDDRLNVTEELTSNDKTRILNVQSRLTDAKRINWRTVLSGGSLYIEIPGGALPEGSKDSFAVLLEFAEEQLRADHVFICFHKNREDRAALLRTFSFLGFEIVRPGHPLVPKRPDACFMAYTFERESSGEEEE
Chain of human cyclin D1 (CCND1) (P24385 whole entry): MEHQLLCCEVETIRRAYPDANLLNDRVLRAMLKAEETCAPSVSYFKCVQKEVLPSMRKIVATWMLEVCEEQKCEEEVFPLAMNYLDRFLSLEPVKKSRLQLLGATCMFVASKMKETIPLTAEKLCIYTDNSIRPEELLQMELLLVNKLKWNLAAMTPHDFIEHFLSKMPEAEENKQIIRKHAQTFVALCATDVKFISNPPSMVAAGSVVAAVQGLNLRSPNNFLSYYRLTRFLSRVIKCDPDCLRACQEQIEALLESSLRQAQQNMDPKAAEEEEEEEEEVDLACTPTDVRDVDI
Chain of C-terminal AZ peptide AZ(100-228) (human) (P54368 100-228): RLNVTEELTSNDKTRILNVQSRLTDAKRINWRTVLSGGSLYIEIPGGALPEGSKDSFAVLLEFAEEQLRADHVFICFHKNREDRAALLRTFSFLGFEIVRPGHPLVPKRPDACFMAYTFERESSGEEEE
Chain of antizyme inhibitor (Homo sapiens) (O14977 whole entry): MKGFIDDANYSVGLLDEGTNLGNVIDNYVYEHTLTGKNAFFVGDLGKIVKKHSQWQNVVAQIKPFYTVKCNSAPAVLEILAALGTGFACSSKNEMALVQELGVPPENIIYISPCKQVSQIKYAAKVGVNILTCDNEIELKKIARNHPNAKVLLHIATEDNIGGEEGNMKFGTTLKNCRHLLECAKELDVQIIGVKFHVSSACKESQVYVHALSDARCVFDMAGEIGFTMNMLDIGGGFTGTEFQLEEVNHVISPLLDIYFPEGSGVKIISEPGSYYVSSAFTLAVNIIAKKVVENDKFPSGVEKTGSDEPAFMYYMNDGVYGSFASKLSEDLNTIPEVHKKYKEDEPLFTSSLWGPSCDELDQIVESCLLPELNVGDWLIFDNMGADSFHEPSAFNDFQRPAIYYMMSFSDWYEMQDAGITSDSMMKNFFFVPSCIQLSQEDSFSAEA
Chain of ornithine decarboxylase (Homo sapiens) (P11926 whole entry): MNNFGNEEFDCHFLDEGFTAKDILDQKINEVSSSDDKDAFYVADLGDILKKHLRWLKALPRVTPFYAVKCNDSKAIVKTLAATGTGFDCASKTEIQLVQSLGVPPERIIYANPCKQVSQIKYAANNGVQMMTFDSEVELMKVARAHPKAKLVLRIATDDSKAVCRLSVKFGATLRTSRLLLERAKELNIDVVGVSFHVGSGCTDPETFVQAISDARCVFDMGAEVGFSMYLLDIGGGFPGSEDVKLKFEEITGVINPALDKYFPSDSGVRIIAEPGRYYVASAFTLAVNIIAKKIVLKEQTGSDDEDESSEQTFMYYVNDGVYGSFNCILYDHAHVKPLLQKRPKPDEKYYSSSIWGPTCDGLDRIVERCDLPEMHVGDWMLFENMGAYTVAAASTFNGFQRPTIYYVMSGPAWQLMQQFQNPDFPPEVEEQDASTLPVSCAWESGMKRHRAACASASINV

- Kd [1]: 14100 nM
Substance: human cyclin D1 (CCND1) (from UniProt P24385 1-295) (natural protein)

Substance: antizyme (from UniProt P54368)
- Kd [2]: 20 nM
- Kd [3]: 210 nM

- Kd [4]: 3840 nM
- stoichiometry N [4]: 2
Substance: human cyclin D1 (CCND1) (from UniProt P24385 1-295) (natural protein; other documents disagree on this pair)
